The values below come from publication PMC10962640, ““Clickable” graphene nanoribbons for biosensor interfaces†”.

Series [1] concerns the target T1, Interleukin-6 (IL6) (human, UniProt P05231 30-212). Kind of series: DPV (electrochemical aptasensor); [Fe(CN)6]4- redox probe; Hill fit, coefficient fixed at 1; Aptamer on GNR-functionalized gold electrodes, [Fe(CN)6]4- redox probe; sensing buffer, pH and temperature not given in the material (aptamer clicked in PBS 1X). Particulars: protein: commercial.
Series [2] has as its target T1, Interleukin-6 (IL6). The series is described as follows: EIS (electrochemical aptasensor); [Fe(CN)6]4- redox probe; phase shift; Hill fit, coefficient fixed at 1; Aptamer on GNR-functionalized gold electrodes, [Fe(CN)6]4- redox probe; sensing buffer, pH and temperature not given in the material (aptamer clicked in PBS 1X). Particulars: protein: commercial.

T1 sequence (P05231 30-212): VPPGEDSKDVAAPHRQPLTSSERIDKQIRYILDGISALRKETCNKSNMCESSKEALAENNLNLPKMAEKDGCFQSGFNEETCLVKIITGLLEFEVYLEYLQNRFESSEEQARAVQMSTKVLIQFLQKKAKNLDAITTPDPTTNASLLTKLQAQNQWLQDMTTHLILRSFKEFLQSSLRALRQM

B1: IL6 DNA aptamer (azide-modified) (ssDNA)
DNA: TTTTTTCTTCCAACGCTCGTATTGTCAGTCTTTAGT
modifications: 5' azide (/5AzideN/), clicked by CuAAC to alkyne graphene nanoribbons on gold electrode
Consider B1, for which the Kd with Interleukin-6 (IL6) [1] is 3.4 ± 0.4 nM; with Interleukin-6 (IL6) [2], 10.4 ± 3.1 nM.

As usually defined, the Kd is a measure of binding affinity in units of concentration.
